Experimental data: publication PMC9910466 (Proceedings of the National Academy of Sciences of the …, 2022)

T1: Npl4 (S. cerevisiae) (S. cerevisiae, UniProt P33755 1-580)
T1 construct: Npl4, S. cerevisiae, codon-optimized gene; source: E. coli BL21-CodonPlus (DE3)-RIL, purified with Ufd1 (Ni-NTA, TEV protease, SEC); not shown: His tag (from the Ni-NTA purification)
T1 sequence: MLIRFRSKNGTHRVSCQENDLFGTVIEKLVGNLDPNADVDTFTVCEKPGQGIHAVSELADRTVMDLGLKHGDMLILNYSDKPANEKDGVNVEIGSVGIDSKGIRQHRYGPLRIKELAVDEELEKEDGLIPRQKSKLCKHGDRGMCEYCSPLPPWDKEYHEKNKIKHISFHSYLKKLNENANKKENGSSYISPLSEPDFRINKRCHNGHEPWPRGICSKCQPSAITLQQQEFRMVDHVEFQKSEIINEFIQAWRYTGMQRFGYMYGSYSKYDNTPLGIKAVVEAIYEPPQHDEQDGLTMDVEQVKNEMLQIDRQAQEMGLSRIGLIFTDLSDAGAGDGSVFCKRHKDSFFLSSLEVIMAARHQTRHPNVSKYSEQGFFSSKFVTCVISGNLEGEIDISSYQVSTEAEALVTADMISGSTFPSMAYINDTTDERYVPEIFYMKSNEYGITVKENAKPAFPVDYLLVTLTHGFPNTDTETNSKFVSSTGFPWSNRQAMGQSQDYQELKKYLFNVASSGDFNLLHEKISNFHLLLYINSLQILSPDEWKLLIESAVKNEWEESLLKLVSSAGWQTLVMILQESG


Key:
[1] = target: Ufd1^ΔSIM/Npl4 dimer, biotinylated (S. cerevisiae) (UniProt P53044); assay: BLI; biotinylated Ufd1/Npl4 dimer (WT Ufd1 or Ufd1^ΔSIM) immobilised on streptavidin biosensors, serial dilution of substrate; 30 °C; PBS, 0.02% Tween-20, 0.1% BSA, 0.1 mM TCEP; 2:1 heterogeneous ligand fit
[2] = target: T1, Npl4 (S. cerevisiae); assay: cryo-EM structure; 2 μM Ufd1/Npl4, 2 μM Cdc48, 2.5 μM 1S1U^H-mEOS, on ice with 1 mM ATP in 20 mM HEPES pH 8.0, 150 mM NaCl, 0.1 mM TCEP, 5 mM MgCl2; single-particle; settings: both partners purified

fold binding defect against WT Ufd1/Npl4 [1] [fold] | binding result [2] | Molecule
100 | – | 1S1U-mEOS substrate without polyubiquitin chain (one SUMO and one ubiquitin fused end to end with the N-terminus of mEOS) (from UniProt Q12306 1-101; P0CG63 1-76)
– | binds | Ufd1 (S. cerevisiae) (natural protein, Ufd1, S. cerevisiae, codon-optimized gene; residues 228 to 256 and 281 to 311 resolved in the maps; source: E. coli BL21-CodonPlus (DE3)-RIL, purified with Npl4 (Ni-NTA, TEV protease, SEC); not shown: His tag (from the Ni-NTA purification)) MFSGFSSFGGGNGFVNMPQTFEEFFRCYPIAMMNDRIRKDDANFGGKIFLPPSALSKLSMLNIRYPMLFKLTANETGRVTHGGVLEFIAEEGRVYLPQWMMETLGIQPGSLLQISSTDVPLGQFVKLEPQSVDFLDISDPKAVLENVLRNFSTLTVDDVIEISYNGKTFKIKILEVKPESSSKSICVIETDLVTDFAPPVGYVEPDYKALKAQQDKEKKNSFGKGQVLDPSVLGQGSMSTRIDYAGIANSSRNKLSKFVGQGQNISGKAPKAEPKQDIKDMKITFDGEPAKLDLPEGQLFFGFPMVLPKEDEESAAGSKSSEQNFQGQGISLRKSNKRKTKSDHDSSKSKAPKSPEVIEID
